Results on 9 variants are retold here after paper PMC3887093.

Sequences and labels used below:
B1: DBP-RII with C-terminally fused GFP, wild type, on the surface of HEK293T cells [Plasmodium vivax] / Duffy antigen/receptor for chemokines (DARC) on human red blood cells [human (endogenous in RBCs)] (parent)
chain 1: ASNTVMKNCNYKRKRRERDWDCNTKKDVCIPDRRYQLCMKELTNLVNNTDTNFHRDITFRKLYLKRKLIYDAAVEGDLLLKLNNYRYNKDFCKDIRWSLGDFGDIIMGTDMEGIGYSKVVENNLRSIFGTDEKAQQRRKQWWNESKAQIWTAMMYSVKKRLKGNFIWICKLNVAVNIEPQIYRWIREWGRDYVSELPTEVQKLKEKCDGKINYTDKKVCKVPPCQNACKSYDQWITRKKNQWDVLSNKFISVKNAEKVQTAGIVTPYDILKQELDEFNEVAFENEINKRDGAYIELCVCSVEEAKKNTQEVVTNVDN
chain 2: MGNCLHRAELSPSTENSSQLDFEDVWNSSYGVNDSFPDGDYGANLEAAAPCHSCNLLDDSALPFFILTSVLGILASSTVLFMLFRPLFRWQLCPGWPVLAQLAVGSALFSIVVPVLAPGLGSTRSSALCSLGYCVWYGSAFAQALLLGCHASLGHRLGAGQVPGLTLGLTVGIWGVAALLTLPVTLASGASGGLCTLIYSTELKALQATHTVACLAIFVLLPLGLFGAKGLKKALGMGPGPWMNILWAWFIFWWPHGVVLGLDFLVRSKLLLLSTCLAQQALDLLLNLAEALAILHCVATPLLLALFCHQATRTLLPSLPLPEGWSSHLDTLGSKS

The experiment covers variants of B1. The experiment is described as follows: red blood cell rosetting (RBC binding) assay with DBP-RII-GFP expressed on HEK293 cells. To be noted: parent: 100, read off a plot.
In the case of chain 1 ASNTVMKNCNYKRKRRERDWDCNTKKDVCIPDRRYQLCMKELTNLVNNTDTNFHRDITFRKLYLKRKLIYDAAVEGDLLLKLNNYRYNKDFCKDIRWSLGDFGDIIMGTDMEGIGYSKVVENNLRSIFGTDEKAQQRRKQWWNESKAYIWTAMMYSVKKRLKGNFIWICKLNVAVNIEPQIYRWIREWGRDYVSELPTEVQKLKEKCDGKINYTDKKVCKVPPCQNACKSYDQWITRKKNQWDVLSNKFISVKNAEKVQTAGIVTPYDILKQELDEFNEVAFENEINKRDGAYIELCVCSVEEAKKNTQEVVTNVDN [chain 1 Q148Y], the percent of parent was found to be 66 % Binding.
Then chain 1 ASNTVMKNCNYKRKRRERDWDCNTKKDVCIPDRRYQLCMKELTNLVNNTDTNFHRDITFRKLYLKRKLIYDAAVEGDLLLKLNNYRYNKDFCKDIRWSLGDFGDIIMGTDMEGIGYSKVVENNLRSIFGTDEKAQQRRKQWWNESKADIWTAMMYSVKKRLKGNFIWICKLNVAVNIEPQIYRWIREWGRDYVSELPTEVQKLKEKCDGKINYTDKKVCKVPPCQNACKSYDQWITRKKNQWDVLSNKFISVKNAEKVQTAGIVTPYDILKQELDEFNEVAFENEINKRDGAYIELCVCSVEEAKKNTQEVVTNVDN [chain 1 Q148D], with 18 % Binding.
On to chain 1 ASNTVMKNCNYKRKRRERDWDCNTKKDVCIPDRRYQLCMKELTNLVNNTDTNFHRDIWFRKLYLKRKLIYDAAVEGDLLLKLNNYRYNKDFCKDIRWSLGDFGDIIMGTDMEGIGYSKVVENNLRSIFGTDEKAQQRRKQWWNESKAQIWTAMMYSVKKRLKGNFIWICKLNVAVNIEPQIYRWIREWGRDYVSELPTEVQKLKEKCDGKINYTDKKVCKVPPCQNACKSYDQWITRKKNQWDVLSNKFISVKNAEKVQTAGIVTPYDILKQELDEFNEVAFENEINKRDGAYIELCVCSVEEAKKNTQEVVTNVDN [chain 1 T58W], for which the percent of parent worked out at 55 % Binding.
Regarding chain 1 ASNTVMKNCNYKRKRRERDWDCNTKKDVCIPDRRYQLCMKELTNLVNNTDTNFHRRITFRKLYLKRKLIYDAAVEGDLLLKLNNYRYNKDFCKDIRWSLGDFGDIIMGTDMEGIGYSKVVENNLRSIFGTDEKAQQRRKQWWNESKAQIWTAMMYSVKKRLKGNFIWICKLNVAVNIEPQIYRWIREWGRDYVSELPTEVQKLKEKCDGKINYTDKKVCKVPPCQNACKSYDQWITRKKNQWDVLSNKFISVKNAEKVQTAGIVTPYDILKQELDEFNEVAFENEINKRDGAYIELCVCSVEEAKKNTQEVVTNVDN [chain 1 D56R], the percent of parent amounted to 42 % Binding.
Then chain 1 ASNTVMKNCNYKRKRRERDWDCNTKKDVCIPDRRYQLCMKELTNLVNNTDTNFHRWITFRKLYLKRKLIYDAAVEGDLLLKLNNYRYNKDFCKDIRWSLGDFGDIIMGTDMEGIGYSKVVENNLRSIFGTDEKAQQRRKQWWNESKAQIWTAMMYSVKKRLKGNFIWICKLNVAVNIEPQIYRWIREWGRDYVSELPTEVQKLKEKCDGKINYTDKKVCKVPPCQNACKSYDQWITRKKNQWDVLSNKFISVKNAEKVQTAGIVTPYDILKQELDEFNEVAFENEINKRDGAYIELCVCSVEEAKKNTQEVVTNVDN [chain 1 D56W], with 59 % Binding.
For the variant chain 1 ASNTVMKNCNYKRKRRERDWDCNTKKDVCIPDRRYQLCMKELTNLVNNTDTNFHRDITFRKLYLKRKLIYDAAVEGDLLLKLNNYRYNKDFCKDIRWSLGDFGDIIMGTDMEGIGYSKVVENNLRSIFGTDEKAQQRRKQWWNESKAQIWTAMMLSVKKRLKGNFIWICKLNVAVNIEPQIYRWIREWGRDYVSELPTEVQKLKEKCDGKINYTDKKVCKVPPCQNACKSYDQWITRKKNQWDVLSNKFISVKNAEKVQTAGIVTPYDILKQELDEFNEVAFENEINKRDGAYIELCVCSVEEAKKNTQEVVTNVDN [chain 1 Y155L], the percent of parent was 0 % Binding.
In the case of chain 1 ASNTVMKNCNYKRKRRERDWDCNTKKDVCIPDRRYQLCMKELTNLVNNTDTNFHRDITFRKLYLKRKLIYDAAVEGDLLLKLNNYRYNKDFCKDIRWSLGDFGDIIMGTDMEGIGYSKVVENNLRSIFGTDEKAQQRRKQWWNESKAQIWTAMMASVKKRLKGNFIWICKLNVAVNIEPQIYRWIREWGRDYVSELPTEVQKLKEKCDGKINYTDKKVCKVPPCQNACKSYDQWITRKKNQWDVLSNKFISVKNAEKVQTAGIVTPYDILKQELDEFNEVAFENEINKRDGAYIELCVCSVEEAKKNTQEVVTNVDN [chain 1 Y155A] it was 0 % Binding; in that of chain 1 ASNTVMKNCNYKRKRRERDWDCNTKKDVCIPDRRYQLCMKELTNLVNNTDTNFHRDITFRKLYLKRKLIYDALVEGDLLLKLNNYRYNKDFCKDIRWSLGDFGDIIMGTDMEGIGYSKVVENNLRSIFGTDEKAQQRRKQWWNESKAQIWTAMMYSVKKRLKGNFIWICKLNVAVNIEPQIYRWIREWGRDYVSELPTEVQKLKEKCDGKINYTDKKVCKVPPCQNACKSYDQWITRKKNQWDVLSNKFISVKNAEKVQTAGIVTPYDILKQELDEFNEVAFENEINKRDGAYIELCVCSVEEAKKNTQEVVTNVDN [chain 1 A73L], 0 % Binding.
As for chain 1 ASNTVMKNCNYKRKRRERDWDCNTKKDVCIPDRRYQLCMKELTNLVNNTDTNFHRDRTFRKLYLKRKLIYDAAVEGDLLLKLNNYRYNKDFCKDIRWSLGDFGDIIMGTDMEGIGYSKVVENNLRSIFGTDEKAQQRRKQWWNESKAQIWTAMMYSVKKRLKGNFIWICKLNVAVNIEPQIYRWIREWGRDYVSELPTEVQKLKEKCDGKINYTDKKVCKVPPCQNACKSYDQWITRKKNQWDVLSNKFISVKNAEKVQTAGIVTPYDILKQELDEFNEVAFENEINKRDGAYIELCVCSVEEAKKNTQEVVTNVDN [chain 1 I57R], the percent of parent is 72 % Binding.
